Reference: publication PMC8897276
Like-named read-outs stand apart in the source and are kept apart here.

How the values were obtained:
[1] = target: A2Moo (ovomacroglobulin), the Xenopus laevis egg Alpha-2-Macroglobulin homolog (Xenopus laevis); assay: cryo-EM structure
[2] = target: A2Moo (ovomacroglobulin), the Xenopus laevis egg Alpha-2-Macroglobulin homolog (Xenopus laevis); assay: cryo-EM structure; remark: listed apart in the source

stoichiometry N [1]: 4 | stoichiometry N [2]: 4
Substance: A2Moo (ovomacroglobulin), the Xenopus laevis egg Alpha-2-Macroglobulin homolog (from UniProt A0A8J1L4C4 1-1441) (natural protein)
